Laboratory results from the supplement of paper PMC10567573.

B1: KRT18 (parent)
chain: RAQYDELARKNREELDKYWSQQIE

Variants of: B1
Assay: protein stability index of a GFP-peptide fusion (GPS, HEK-293T) (PSI 1-6); higher = more stable
Conditions: c terminus: a fixed tail appended
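Also: lentivirally expressed fusions sorted by FACS into six bins by GFP to DsRed ratio, PSI derived from sequencing read proportions per bin multiplied by bin number.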

Variant	protein stability index
RMQYDELARKNREELDKYWSQQIE	2.65
RPQYDELARKNREELDKYWSQQIE	3.13
RYQYDELARKNREELDKYWSQQIE	2.72
RKQYDELARKNREELDKYWSQQIE	2.65
REQYDELARKNREELDKYWSQQIE	3.34
RDQYDELARKNREELDKYWSQQIE	3.18
RLQYDELARKNREELDKYWSQQIE	2.51
RCQYDELARKNREELDKYWSQQIE	2.48
RGQYDELARKNREELDKYWSQQIE	2.33
RIQYDELARKNREELDKYWSQQIE	2.5
RTQYDELARKNREELDKYWSQQIE	2.52
RHQYDELARKNREELDKYWSQQIE	3.23
RFQYDELARKNREELDKYWSQQIE	2.73
RNQYDELARKNREELDKYWSQQIE	2.52
RVQYDELARKNREELDKYWSQQIE	3.11
RQQYDELARKNREELDKYWSQQIE	3.07
RWQYDELARKNREELDKYWSQQIE	3.13
RSQYDELARKNREELDKYWSQQIE	3.25
RRQYDELARKNREELDKYWSQQIE	3.24
PAQYDELARKNREELDKYWSQQIE	3.08
DAQYDELARKNREELDKYWSQQIE	2.87
GAQYDELARKNREELDKYWSQQIE	3.12
MAQYDELARKNREELDKYWSQQIE	2.97
HAQYDELARKNREELDKYWSQQIE	2.97

Variant	protein stability index
WAQYDELARKNREELDKYWSQQIE	2.12
LAQYDELARKNREELDKYWSQQIE	2.79
SAQYDELARKNREELDKYWSQQIE	3.06
TAQYDELARKNREELDKYWSQQIE	3.02
IAQYDELARKNREELDKYWSQQIE	2.79
VAQYDELARKNREELDKYWSQQIE	3.71
AAQYDELARKNREELDKYWSQQIE	3.38
CAQYDELARKNREELDKYWSQQIE	2.19
EAQYDELARKNREELDKYWSQQIE	3.06
NAQYDELARKNREELDKYWSQQIE	2.99
FAQYDELARKNREELDKYWSQQIE	2.47
YAQYDELARKNREELDKYWSQQIE	2.29
QAQYDELARKNREELDKYWSQQIE	3.07
KAQYDELARKNREELDKYWSQQIE	2.29
RAQYDPLARKNREELDKYWSQQIE	4.07
RAQYDRLARKNREELDKYWSQQIE	3.17
RAQYDWLARKNREELDKYWSQQIE	2.42
RAQYDMLARKNREELDKYWSQQIE	2.99
RAQYDCLARKNREELDKYWSQQIE	2.3
RAQYDTLARKNREELDKYWSQQIE	3.36
RAQYDQLARKNREELDKYWSQQIE	3.51
RAQYDLLARKNREELDKYWSQQIE	2.85
RAQYDSLARKNREELDKYWSQQIE	3.24
RAQYDHLARKNREELDKYWSQQIE	3.41

Variant	protein stability index
RAQYDFLARKNREELDKYWSQQIE	3.15
RAQYDILARKNREELDKYWSQQIE	3.05
RAQYDGLARKNREELDKYWSQQIE	3.02
RAQYDYLARKNREELDKYWSQQIE	3.25
RAQYDALARKNREELDKYWSQQIE	3.3
RAQYDDLARKNREELDKYWSQQIE	3.27
RAQYDVLARKNREELDKYWSQQIE	3.32
RAQYDNLARKNREELDKYWSQQIE	3.66
RAQYDKLARKNREELDKYWSQQIE	3.48
RAQNDELARKNREELDKYWSQQIE	3.68
RAQIDELARKNREELDKYWSQQIE	3.47
RAQKDELARKNREELDKYWSQQIE	3.46
RAQGDELARKNREELDKYWSQQIE	3.04
RAQLDELARKNREELDKYWSQQIE	2.25
RAQMDELARKNREELDKYWSQQIE	3.18
RAQADELARKNREELDKYWSQQIE	3.84
RAQPDELARKNREELDKYWSQQIE	3.67
RAQVDELARKNREELDKYWSQQIE	4
RAQWDELARKNREELDKYWSQQIE	2.48
RAQCDELARKNREELDKYWSQQIE	3.44
RAQRDELARKNREELDKYWSQQIE	4
RAQHDELARKNREELDKYWSQQIE	3.45
RAQTDELARKNREELDKYWSQQIE	3.91
RAQEDELARKNREELDKYWSQQIE	3.57

Variant	protein stability index
RAQQDELARKNREELDKYWSQQIE	3.93
RAQSDELARKNREELDKYWSQQIE	3.74
RAQDDELARKNREELDKYWSQQIE	3.23
RAQFDELARKNREELDKYWSQQIE	3.52
RAQYVELARKNREELDKYWSQQIE	3.57
RAQYMELARKNREELDKYWSQQIE	2.75
RAQYIELARKNREELDKYWSQQIE	2.98
RAQYSELARKNREELDKYWSQQIE	2.79
RAQYEELARKNREELDKYWSQQIE	2.86
RAQYYELARKNREELDKYWSQQIE	3.28
RAQYTELARKNREELDKYWSQQIE	3.57
RAQYLELARKNREELDKYWSQQIE	2.33
RAQYGELARKNREELDKYWSQQIE	3.09
RAQYFELARKNREELDKYWSQQIE	2.83
RAQYAELARKNREELDKYWSQQIE	2.74
RAQYPELARKNREELDKYWSQQIE	3.73
RAQYCELARKNREELDKYWSQQIE	3.33
RAQYNELARKNREELDKYWSQQIE	3.17
RAQYHELARKNREELDKYWSQQIE	3.29
RAQYQELARKNREELDKYWSQQIE	3.38
RAQYRELARKNREELDKYWSQQIE	2.79
RAQYKELARKNREELDKYWSQQIE	2.84
